# From the nanobody polyreactivity screen of Harvey et al. (2022)
# Assay: yeast display, Sf9 membrane polyspecificity reagent, FACS + sequencing; frameworks hold sequencing errors
# How it was run: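 Sorting gates, low and high (top ~1%), were placed on anti-HA fluorescence to track expression and on streptavidin fluorescence to track reagent binding. A clone's polyreactivity label is taken from the gate it came out of. The reagent was 10% biotinylated, detergent-solubilized Sf9 membrane, applied for 1 hour at 4 °C to galactose-induced yeast display cells.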
row,Sequence,polyreactivity (PSR sort gate)
1,QVQLVESGGGLVQAGGSLRLSCGASGSTSDIYAMGWYRQAPGKESEFGAAISLTGGTTYYADSVKGRFTISCENAKNTVYLQMNSLKQEDTAVYYCNADVGWWGYDDDYWGQGTQVTVSS,high polyreactivity
2,QVQLVESGGGLVQAGGSLRLSCGASGYIFDRYPMGWYRQAPGKEREVVASISRRGGSTYYADSVKGRFTISRDNAKNTVYLQMNSLKPEATAVYYCAAKWPFRRSAVVRYDYWGQGTQVTVSS,high polyreactivity
3,QVQLVESGGGLVQAGGSLRLSCPASASNYAAYTMAWYRQAPGKERECVAAITSGGSTNYADSVKGRFTISRDNAKNTVYLQMNSLKPEDTAVYYCAAEDLNYYFWRSLWFGIYDDWGQGTQVTVSS,low polyreactivity
4,QVQLVESGGGLVQAGGSLRLSCPASGFIFSIYTMGWYRQAPGKERELVAAITRSGSSTYYADSVKGRFTISRDNAKNTVYLQMNSLKPEDTAVSYCNRLCFGQYQPFYGYWGQGTQVTVSS,high polyreactivity
5,QVQLVESGGGLVQAGGSLRLSCPASGFTFYVNAMGWSRQAPGKERELVAGITTSDGSTYYADSVKGRFTISRDNAKNNVYLQMNSLKPEDTAVYYCAAAITWYQLYQRSGGDYWGQGTQVTVSS,low polyreactivity
6,QVQLVESGGGLVQAGGSLRLSCPASGFTILDYAMGWYRQAPGKEREMVATINWSDVSTYYADSVKGRFTISRDTAKNTVYLQMNSLKPEDTAVYYCAVDVLTVGQSYDHWGQGTQVTVSS,high polyreactivity
7,QVQLVESGGGLVQAGGSLRLSCPASGGIFEGNAMGWYRQAPGKEMELVASITYGGGSTYYADSVKGRFTISRDNAKNTVYLQMNSLKPEDTAVYYCAADATTPGVQNGYGSWGQGTQVTVSS,low polyreactivity
8,QVQLVESGGGLVQAGGSLRLSCPASGITFVPNAMGWYRQAPGKERELVARIDNGVSTNYADSVKGRFTISRDNAKNTVYLQMNSLKPEDTAVYYCAKDGYWGDWDLDYWGQGTQVTVSS,low polyreactivity
9,QVQLVESGGGLVQAGGSLRLSCPASGLIFLHNAMGWYRQAPGKERELVATISLSGGSTYADSVKGRFTISRDNAKNTVYLQLYSLKPEDTAVYYCAAGGQYYIIRYDYWGQGTQVTVSS,low polyreactivity
10,QVQLVESGGGLVQAGGSLRLSCPASGLTFQRYAMGWYRQAPGKERELVAAITVGGGRTYYADSVKGRFTISRDNAKNTVYLQMNSLKPEDTAVYYCAADSHASTYDYWGQGTQVTVSS,low polyreactivity
11,QVQLVESGGGLVQAGGSLRLSCPASGLTFWLYALGWYRQAPGKERELVAAITRSGGSTSYADSVKGRFTISRDNAKNTVYLQMNSLKPEDTAVYYCNADSPGYTAVRLVEFDYWGQGTQVTVSS,low polyreactivity
12,QVQLVESGGGLVQAGGSLRLSCPASGNIFLSYAMGWYRQAPGKERELVAGISASGGRTYYADSVKGRFTISRDNAKNTVYLQMNSLKPEDTAVYYCATRGQTRTTTRYYSWGQGTQVTVSS,high polyreactivity
13,QVQLVESGGGLVQAGGSLRLSCPASGRIFVLGWYRQAPGKERELVAAINDSGDITYYADSVKGRFSISRDNAKYTVYLQMNSLKPEDTAVYYCAASAAYYGFYKSVTYDYWGQGSQVTVSS,low polyreactivity
14,QVQLVESGGGLVQAGGSLRLSCPASGRIFYKYAMGWYRQAPGKERELVAAISSTGGSTNYADSVKGRFTISRDNAKNSVYFQMNSLKPEDTAVYYCNAVSRYYYPYYYWGQGTQVTVSS,low polyreactivity
15,QVQLVESGGGLVQAGGSLRLSCPASGRIFYVYAMGWYRQAPGKERELVAAITSSGGSTNYADSVKGRFTISRDNAKNTVYLQMNSLKPEDTAVYYCAAKPYYIPTRTYSHYNFWGQGTQVTVSS,high polyreactivity
16,QVQLVESGGGLVQAGGSLRLSCPASGRTFILNDMGRYRQAPGKEREFVATIDWSGGSSYYADSVKGRFTISRDNAKNTVFLQMNSLKPEDTAVYYCNRAFVPVYDLDYYWGQGTQVTVSS,low polyreactivity
17,QVQLVESGGGLVQAGGSLRLSCPASGSICRYYAMGWYRQAPGKERELVAVITRGGSTYYADSVKGRFTISRDNAKNTVYLQMNSLKPEDTAVYYCAADYWPAGLDRGYWGQGTQVTLSS,low polyreactivity
18,QVQLVESGGGLVQAGGSLRLSCPASGSIFDVYTMGWYRQAPGKEMELVAAINTGGGSTYYADSVKGRFTISRDTAKNTVYLQMYSMKPEDTAVYSCAKEVSPYWTFDYWGQGTQVTVSS,low polyreactivity
19,QVQLVESGGGLVQAGGSLRLSCPASGSIFPTYAMGRYRQAPGKERELVAAITTSGGNTFYADSVKGRFTISRDNAKNTVYLQMNRLKPEDTAVYYCAAYYSPYTVEYDYWGQGTLVTVSS,low polyreactivity
20,QVQLVESGGGLVQAGGSLRLSCPASGSIFRFYTMGWYRQAPGKERELVASITWTGGSSYYADSVKGRFTISRDNAKNTVYLQMNSLKPEDTAVYYCAARRYLRLVGRYDYWGQGTQVTVSS,low polyreactivity
21,QVQLVESGGGLVQAGGSLRLSCPASGSISRQYAMGWYRQAPGKERELVAAITVRGGSTYYADSVKGRFTISRDNAKNTVYLQMNSLKPEDTAVYYCAKYTRYSASYDYWGQGTQVTVSS,high polyreactivity

row,Sequence,polyreactivity (PSR sort gate)
1,QVQLVESGGGLVQAGGSLRLSCPASGSTFEDNAMGWYRQAPGKERELVAAISRTGGRTYYADSVKGRFTISRDNAKNTVYLQMNSLKPEDTAVYYCNAVYPAQRMDYWGQGTQVTVSS,high polyreactivity
2,QVQLVESGGGLVQAGGSLRLSCPASGSTFQYNPLGWYRQAPGKERELVAAISRRGGSTYYADSVKGRFTISRDNAKNTVYLQMNSLKPEDTAVYYCAVSAYKGYDYWGQGTQVTVSS,high polyreactivity
3,QVQLVESGGGLVQAGGSLRLSCPASGSTFRHYVMGRYRQAPGKERELVAAINWTSGSTNYADSVKGRFTISRDNAKNTVYFQMNSLKPEDTAVYYCAARGPVGYGWRYRPWHDYWGQGTQVTVSS,high polyreactivity
4,QVQLVESGGGLVQAGGSLRLSCPASGSTIPLYAMGWYRPAPGKERELVAAISRRGGRTYYADSVKGRFTISRDNAKNSVYLQMNSLKPEDTAVYYCATAQGSRVDYWGQGTQVTVSS,high polyreactivity
5,QVQLVESGGGLVQAGGSLRLSCPASGSTLWGYAMGWYRQAPGKERELVAAITSSGGITYYADSVKGRFTISRDNAKNTVYLQMNSLKPEDTAVYYCAVDYYVVGWTYLYYYRGQGTQVTVSS,low polyreactivity
6,QVQLVESGGGLVQAGGSLRLSCPASVSIFYTYAMGLYRQAPGKEREFFASNTYRGSNTYYADSVKGRFTISRDNAKNTVYLQMNSLKPEDTAVYYCAAERYLYYPPYIYETSYVYWGQGSQVTVSS,low polyreactivity
7,QVQLVESGGGLVQAGGSLRLSCPPSGYTISHYAMGWYRQAPGKERELVAGITWSGGSTYYADSVKGRFTISRDNAKNTVYLQMNSLKPEDTSVYFCAAKYYWYYSYSGIPLFDYWGQGTQVTVSS,low polyreactivity
8,QVQLVESGGGLVQAGGSLRLSCSACGFIFPSYVMGWYRQAPGKERELVATISRSGGSTYYADSVKGRFTISRDNAKNTVYLQMNSLKPEDTAVYYCATRRRCRYSPYSPYDYWGQGTQVTVTS,high polyreactivity
9,QVQLVESGGGLVQAGGSLRLSCSASERTFYWNTMGWYRQAPGKERELVAAIRTSGGSTYYADSVKGRFTISRDNAKNTVYLQMNSLKPEDTAVYYCAAKYRNYNTRYDYWGQGTQVTVSS,high polyreactivity
10,QVQLVESGGGLVQAGGSLRLSCSASGFIFGKYAMGRYRQAPGKERELVAAISKSGGSTYYADSVKGRFTISRDNAKNTVYLQMNSLKPEDTAVYYCDARSLGHYGSWGQGTQVTVSS,high polyreactivity
11,QVQLVESGGGLVQAGGSLRLSCSASGFIFRRYAMGWYRQAPGKEREFVAAITSSGTSTYYADSVKGRFTISRDNAKNTVYLQMNSLKPEDTAVYYCADVYQYTHYYSNYGYWGEGTQVTVSS,high polyreactivity
12,QVQLVESGGGLVQAGGSLRLSCSASGFIFTTYAMAWYRQAPGKERELVAAIRNSDGSTYYADSVKGRFTISRDNAKNTVYLQMNSLKPVDTAVYYCAKRYRGEPGRTYGYWGQGTQVTVSS,high polyreactivity
13,QVQLVESGGGLVQAGGSLRLSCSASGFIFTYVMGWYRQAPGKERELVAVITNGGSTYYADSVKGRFTISRDNAMNTVYLQMNSLKPEDTAVYYCAARARFRYDSYYYWGQGTQVTVSS,high polyreactivity
14,QVQLVESGGGLVQAGGSLRLSCSASGFTFKRYAKGLYRQAHGKERELVASISSSGGRTYYADSVKGRFTISRDNAKNTVYLQMNSLKPEDTAVYYCSASDWWGYYFWGQGTQVTVSS,high polyreactivity
15,QVQLVESGGGLVQAGGSLRLSCSASGGTFSYYAMGWYRQAPGKERELVASISTDGGSTYYADSVKGRFTISRDNAKNTVYLQMNSLKPEDTAVYYCNARPRGYSDRYGYWGQGTQVTVSS,high polyreactivity
16,QVQLVESGGGLVQAGGSLRLSCSASGIIFGFYAMGWYRQAPGKERELVAAITNDGGNTNYADSVKGRFTISRDNAKNTVYLQMNSLKPEDTAVYYCNADRTQDRNPYTYATFDYWGQGTQVTVSS,low polyreactivity
17,QVQLVESGGGLVQAGGSLRLSCSASGIIFPTYAMGLYRQAPGKERELVAAIRWTGGSTYYADSVKGRFTISRDNAKNTVYLQMNSLKPEDTAVYYCAAAYRGRYKYYYWGQGTQVTVSS,high polyreactivity
18,QVQLVESGGGLVQAGGSLRLSCSASGITFFTYAMGWYRQAPGKERELVAAISGSGGSTYYADSVKGRFTISRDNAKNTVYLQMNSLKPEDTADYYCAAEYTYASPYDYWGQGTQVTVSS,low polyreactivity
19,QVQLVESGGGLVQAGGSLRLSCSASGITFPDYAMGWYRQAPVKERELVATISSSGGNTYYADSVKGRFTISRDNAKNTVYLQMNSLKPEDTAVYYCATVSYYWGYDYWGQGTQVTVSS,low polyreactivity
20,QVQLVESGGGLVQAGGSLRLSCSASGITFWKYAMGWYRQAPGKERELVASISGRGGSTYYADSVKGRFTISRYKANNTVYLQMNSLKPEDTAVYYCAKYPGISGYNYWGQGTQVTVSS,high polyreactivity
